Results as given in article PMC4003280, “Structural basis for the Nanos-mediated recruitment of the CCR4–NOT complex and translational repression” (Genes & Development, 2014).

Experiments:
MBP-CNOT1 SHD = biological target: T1, MBP-CNOT1 SHD (human, UniProt A5YKK6 1833-2361); experiment: pull-down; GST pull-down in vitro with recombinant proteins expressed in E. coli; GST-NIM as bait; details: both partners purified
T1 construct: also called isolated CNOT1 SHD; NOT1 superfamily homology domain; source: E. coli BL21 (DE3) Star, purified (amylose resin, HiTrapQ, Superdex 200); not shown: MBP, N-terminal, kept

[1] = biological target: T2, CNOT1 SHD (residues 1833–2361), MBP tag removed (human, UniProt A5YKK6 1833-2361); experiment: crystal structure; CNOT1 SHD with synthetic Nanos1 NIM peptide; vapor diffusion at 22°C, 0.7-0.8 M succinic acid pH 7.0; refined at 2.8 Å; details: both partners purified
T2 construct: source: E. coli BL21 (DE3) Star, purified (amylose resin, HiTrapQ, HRV3C digestion, size exclusion chromatography); not shown: MBP, N-terminal, cleaved
T2 sequence (A5YKK6 1833-2361): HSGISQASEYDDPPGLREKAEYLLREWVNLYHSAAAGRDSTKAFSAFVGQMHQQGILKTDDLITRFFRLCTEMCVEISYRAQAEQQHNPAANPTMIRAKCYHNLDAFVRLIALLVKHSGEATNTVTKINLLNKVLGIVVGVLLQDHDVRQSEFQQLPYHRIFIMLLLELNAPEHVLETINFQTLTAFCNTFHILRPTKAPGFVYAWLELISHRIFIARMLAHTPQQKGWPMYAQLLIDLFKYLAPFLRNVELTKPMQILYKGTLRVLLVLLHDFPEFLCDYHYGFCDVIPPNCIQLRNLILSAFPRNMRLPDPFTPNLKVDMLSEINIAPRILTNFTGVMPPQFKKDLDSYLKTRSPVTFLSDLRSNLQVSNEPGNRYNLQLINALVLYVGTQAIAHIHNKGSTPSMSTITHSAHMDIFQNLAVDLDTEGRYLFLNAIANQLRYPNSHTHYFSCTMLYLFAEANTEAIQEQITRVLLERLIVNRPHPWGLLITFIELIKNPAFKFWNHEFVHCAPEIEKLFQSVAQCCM

T1 sequence (A5YKK6 1833-2361): as above

| Binder | binding result (MBP-CNOT1 SHD) | binding result [1] |
| --- | --- | --- |
| FSSWNDYLGLATLITKA (domain or fragment, human, UniProt Q8WY41 40-56, looked up, Nanos1, human, NIM, residues 40-56; also called conserved motif of Nanos1 fused to glutathione S-transferase; GST-tagged Nanos1 NIM; source: E. coli BL21 (DE3) Star, purified (described in the Supplemental Material)) [GST-Nanos1 NIM] | binds |  |
| FDMWKDYFNLSQVVWAL (domain or fragment, human, UniProt P60321 6-22, looked up, Nanos2, human, NIM, residues 6-22; also called conserved motif of Nanos2 fused to glutathione S-transferase; GST-tagged Nanos2 NIM; source: E. coli BL21 (DE3) Star, purified (described in the Supplemental Material)) [GST-Nanos2 NIM] | binds |  |
| FDLWTDYLGLAHLVRAL (domain or fragment, human, UniProt P60323 4-20, looked up, Nanos3, human, NIM, residues 4-20; also called conserved motif of Nanos3 fused to glutathione S-transferase; GST-tagged Nanos3 NIM; source: E. coli BL21 (DE3) Star, purified (described in the Supplemental Material)) [GST-Nanos3 NIM] | binds |  |
| FSSWNDYLGLATLITKA (peptide, UniProt Q8WY41 40-56, looked up, Nanos1, H. sapiens, NIM, residues 40–56; also called NIM peptide of Nanos1; Nanos1 peptide; source: synthetic peptide (EMC Microcollections)) [Nanos1 NIM peptide (residues 40–56)] |  | binds |
